# B1: DNAJC30 (natural protein)
# chain: SQGDCSYSRTALYDLLGVPSTATQAQIKAAYYRQCFLYHPDRNSGSAEAAERFTRISQAYVVLGSATLRRKYDRGLLSDEDLRGPGVRPSRTPAPDPGSPRTPPPTSRTHDGSRASPGANRTMFNFDAFYQAHYGEQLERERRLRARREALRKRQEYRSMKGLRWEDTRDTAAIFLIFSIFIIIGFYI
# Target: complex I-containing supercomplex (human (endogenous in fibroblasts and HEK293)) (UniProt P56181)
# Assay: complexome profiling (blue native electrophoresis with mass spectrometry); mitochondria-enriched membranes of control fibroblast and control HEK293 cells, solubilised with detergent (digitonin for supercomplexes), 3% to 18% acrylamide blue native gel, gel bands or slices read by quantitative mass spectrometry; co-migration
# Sequence of UniProt P56181 (P56181 whole entry, looked up, one chain of several): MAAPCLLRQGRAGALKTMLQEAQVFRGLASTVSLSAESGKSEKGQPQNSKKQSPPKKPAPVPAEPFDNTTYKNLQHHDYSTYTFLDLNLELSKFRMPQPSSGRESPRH
binder,measurement,value
B1,ratio DNAJC30/complex I in the supercomplex (DNAJC30/complex I),0.005
